Among the data in patent US20050244894A1 are DEVDase activity of cytosolic extract of NK1R-transfected 293T cells values, retold here.

For this assay, the target named is procaspase-3 (endogenous, in cytosolic extract of 293T cells) (human) (UniProt P42574). The experiment in a line: cell-based or functional assay.
Chain of procaspase-3 (endogenous, in cytosolic extract of 293T cells) (human) (P42574 whole entry): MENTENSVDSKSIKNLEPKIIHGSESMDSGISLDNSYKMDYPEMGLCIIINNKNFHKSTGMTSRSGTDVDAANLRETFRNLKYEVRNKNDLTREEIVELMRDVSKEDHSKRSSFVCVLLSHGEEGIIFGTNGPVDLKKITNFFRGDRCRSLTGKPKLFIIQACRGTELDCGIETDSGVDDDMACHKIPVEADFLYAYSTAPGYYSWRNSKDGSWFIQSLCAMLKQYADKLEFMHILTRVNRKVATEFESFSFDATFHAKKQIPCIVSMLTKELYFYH

In turn, granzyme B (enzyme) gave a DEVDase activity of cytosolic extract of NK1R-transfected 293T cells of 7 fold.
